From US20040014191A1, “Nitroreductase enzymes” (priority 1999, published 2004)
“Also recorded” adds a separate entry of the source. Read-outs that look alike come from different tables or passages of the source.

Assays:
[1] = test system: Cc1cc2nc3c(=O)[nH]c(=O)nc-3n(C[C@H](O)[C@H](O)[C@H](O)COP(=O)(O)O)c2cc1C; experiment: purified protein, by the assay type; conditions: other: flavin substrates, cofactor not given; pH 7.0; 37.0 °C
[2] = test system: Cc1cc2nc3c(=O)[nH]c(=O)nc-3n(C[C@H](O)[C@H](O)[C@H](O)COP(=O)(O)OP(=O)(O)OC[C@H]3O[C@@H](n4cnc5c(N)ncnc54)[C@H](O)[C@@H]3O)c2cc1C; experiment: purified protein, by the assay type; conditions: other: flavin substrates, cofactor not given; pH 7.0; 37.0 °C
CC1=CC(=O)c2ccccc2C1=O = experiment: purified protein, by the assay type; conditions: other: 1 mM NADPH; pH 7.0; 37.0 °C
Smu2 = experiment: Kinetic parameters for Smu2; assay type: biochemical, Streptococcus mutans
Experimental: (§1) Quantitative assays using CB 1954 or SN 23862 as substrate were carried out at 37° C. by HPLC as previously described (2) (3). […] Incubation times varied according to the enzyme activity being studied.

Pae3 = experiment: Kinetic parameters for Pae3; assay type: biochemical, Pseudomonas aeruginosa; conditions: menadione as substrate, NADPH as cofactor
Experimental: […] […] Incubation times varied according to the enzyme activity being studied.
The protein encoded by Pae3 was overexpressed in E. coli and purified by anion exchange chromatography.

Efa 1 = experiment: Kinetic parameters for Efa 1; assay type: biochemical, Enterococcus faecalis
Description: This gene is more highly related in sequence to ydgI compared to the other sequences used to search databases.

H. influenzae NfnB = H. influenzae NfnB (Haemophilus influenzae, UniProt Q57431)
YodC = YodC (Bacillus subtilis, UniProt P81102); experiment: Substrate and cofactor specificity for YodC
Experimental: as §1
(§2) Assays were carried out spectrophotometrically at 37° C. in 10 mM Tris pH 7.5 using cytochrome c as terminal electron acceptor.

C. jejuni NfnB = C. jejuni NfnB (Campylobacter jejuni, UniProt Q0P9I8)
V79 cells = experiment: In vitro cytotoxicity test, prodrug + enzyme + cofactor, SRB assay; assay type: cell-based; conditions: for in vitro cytotoxicity of SN 23862 with enzyme: FIG. 4
Experimental: Microtitre plates (96 well) were obtained pre-seeded with V79 cells at 10,000 cells/ml (European Collection of Animal Cell Cultures, ECACC) in DMEM+10% foetal calf serum. All treatments were prepared on duplicate plates and transferred to the cells prior to adding enzyme (10 μl) to the appropriate wells. […] Enzymes were diluted in sterile PBS. All aqueous solutions were filter sterilised before use and operations carried out aseptically in a laminar flow hood. […] Cytotoxicity was quantified by sulphorhodamine B (SRB) assay. Briefly, the growth medium was removed and the cells fixed by addition of 100 μl per well of cold 10% TCA for 30 min. The TCA was removed and the fixed cells washed with water before adding 100 μl per well of 0.4% dye in 1% acetic acid and incubating at room temperature for 30 min. Excess dye was removed and the wells washed 4 times with 1% acetic acid. After air drying at room temperature the dye was solubilised by adding 100 μl of 10 mM Tris to each well and shaking for 15 min. […] Cytotoxicity towards treated cells was expressed as % of A492 of untreated controls and statistical analysis was performed using the Mann-Whitney test. ED50's were caculated using probit analysis.

[3] = test system: recombinant enzymes (antigens); experiment: Western blots of antigens with rabbit antisera; assay type: binding; conditions: antisera 1/10000 or 1/20000, ECL detection
Experimental: Recombinant enzymes were run on SDS PAGE 4-20% gradient at 0.05, 0.5, 5, 50 and 500 ng with 500 ng of the other antigens to test cross-reactivity. The antisera were added at a dilution of 1/10 000 or 1/20 000. Secondary antibody dilutions were as shown above and detection was by ECL (Amersham).
Antigens were run on SDS PAGE 4-20% gradient at 0.05, 0.5, 5, 50 and 500 ng with 500 ng of other antigens to test cross-reactivity. The antisera were added at a dilution of 1/10000 (α-P. gingivalis YwrO, α-YwrO BAM and α-H. influenzae NfnB) or 1/20000 (α-E. coli B NfnB and α-YdgI). Secondary antibody dilutions were as shown above and detection was by ECL.

[4] = Quinone reductase assay with menadione, cytochrome c as terminal electron acceptor; assay type: biochemical; conditions: for Quinone reductase: Table 6
Experimental: as §2

[5] = test system: recombinant enzymes (antigens); experiment: Polyclonal antisera titres by ELISA; assay type: binding; conditions: rabbit antiserum; for Post-boost titre: 10 days after booster; for Pre-boost titre (50%): after 8 weeks
Experimental: Polyclonal antisera were raised against recombinant enzymes by immunising rabbits with […] of protein in 50% PBS:50% Freund's complete adjuvant, total volume 400 μl. Blood was collected by ear bleed after 6-8 weeks and again 10 days after a booster immunisation of protein, and titre assessed by ELISA. 96-well plates were coated with 1 μg ml^−1 of the proteins and blocked with 10% v/v foetal calf serum (FCS), antibodies were diluted in assay buffer (1% FCS) and applied in doubling dilutions across the plate from 1 in 100 to 1 in 51 200 or 1 in 150 to 1 in 76 800. A secondary antibody conjugated with HRP (dilution 1 in 10 000) was used to develop the assay with 3,3′,5,5′-tetramethylbenzidine (TMB) as substrate.
Antisera to E. coli B NfnB and six novel proteins (Haemophilus influenzae and Campylobacter jejuni NfnB homologues, YdgI and YodC of Bacillus subtilis, YwrO of B. amyloliquefaciens and Porphyromonas gingivalis YwrO homologue) have been raised in rabbits by inoculation with 100 μg of protein in PBS+ Freund's complete adjuvant. Titres were assessed by ELISA after 8 weeks, and 10 days after a booster inoculation of a further 100 μg of protein per rabbit. Pre-immune sera were also tested.
96 well plates were coated overnight at 4° C. with the antigens at 1 μg/ml. After washing and blocking antisera were added in doubling dilutions in an appropriate range across the plates. The plates were developed using goat anti-rabbit IgG peroxidase conjugate with TMB as substrate, and read at 450 nm.

[6] = assay type: biochemical; conditions: for Cofactor: Table 6
[7] = Nitroreductase enzyme assay with CB 1954 as substrate (HPLC); assay type: biochemical
[8] = Flavin reductase assay with FMN and FAD; assay type: biochemical; conditions: for Flavin reductase: Table 6
Experimental: as §2

[9] = assay type: biochemical; conditions: Table 6
[10] = Nitroreductase enzyme assay with SN 23862 as substrate (HPLC); assay type: biochemical
[11] = substrates, NADPH preferred cofactor
[12] = listed as P. gingivalis YwrO homologue
[13] = listed as YwrO of P. gingivalis
[14] = Table 6, 37° C., read-out: Km CB 1954

Chain of YodC (P81102 2-202): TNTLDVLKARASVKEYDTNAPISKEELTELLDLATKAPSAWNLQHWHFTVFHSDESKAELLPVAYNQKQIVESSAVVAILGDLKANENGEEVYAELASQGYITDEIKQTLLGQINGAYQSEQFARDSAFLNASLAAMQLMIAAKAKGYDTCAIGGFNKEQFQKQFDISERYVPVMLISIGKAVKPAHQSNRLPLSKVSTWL
Chain of C. jejuni NfnB (Q0P9I8 entry or part of it): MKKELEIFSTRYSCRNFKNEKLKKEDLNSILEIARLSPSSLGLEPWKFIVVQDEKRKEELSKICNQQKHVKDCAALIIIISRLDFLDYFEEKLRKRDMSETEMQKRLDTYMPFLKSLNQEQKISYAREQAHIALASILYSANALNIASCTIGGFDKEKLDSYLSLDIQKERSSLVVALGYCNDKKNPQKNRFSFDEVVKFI

C. jejuni NfnB (Campylobacter jejuni subsp. jejuni NCTC 11168 = ATCC 700819)
Km [1]: 0.7 ± 0.2 μM μM
Km [2]: 3.3 ± 0.4 μM μM
Km (CC1=CC(=O)c2ccccc2C1=O): 1.3 ± 0.2 μM μM

CC1=CC(=O)c2ccccc2C1=O [Menadione]
Km (Smu2; [11]): 2.7 µM
kcat (Smu2; [11]): 201.0 s⁻¹
Km (Pae3): 3.8 µM
Ksi (Pae3): 18.0 µM
kcat (Pae3): 153.4 s⁻¹
Ksi (Efa 1): 18.0 µM
Km (Efa 1; substrates, cofactor not given): 107 µM
kcat (Efa 1; substrates, cofactor not given): 264.8 s⁻¹
kcat (H. influenzae NfnB; 1 mM NADH): 24.1
kcat (H. influenzae NfnB; 1 mM NADPH): 177.8
kcat (YodC; cofactor NADH): 415.4 ± 14.8 s⁻¹
Km (YodC; cofactor NADH, 37° C., 10 mM Tris pH 7.5): 1 ± 0.1 µM
Km (YodC; cofactor NADPH): 1.6 ± 0.2 µM
kcat (YodC; cofactor NADPH): 329.5 ± 18.4 s⁻¹
kcat (C. jejuni NfnB; 1 mM NADPH): 66.1 s⁻¹

NADPH
Km (Smu2; 100 uM menadione): 1.3 µM
kcat (Smu2; 100 uM menadione): 188.7 s⁻¹
Km (Pae3): 308 µM
kcat (Pae3): 33.8 s⁻¹
kcat (H. influenzae NfnB; menadione 100 μM): 154.2
kcat (C. jejuni NfnB; 20 μM menadione): 62.5 s⁻¹

B1: P. gingivalis YwrO: nitroreductase from Porphyromonas gingivalis, SEQ ID NO: 25 (protein, listed as Porphyromonas gingivalis)
chain: MKKTLVIVVHPDLTKSVINKAWAKAIEGAATIHHLYEQYPNGQIDLAHEQALLEAHDRIVFQFPLYWYAAPYLLKKWMDEVFTEGWAYGAGGDKMEGKEICAAVSCGSPKSAFAEGAQQCHTLRSYLNVFDGIAAFLRARFTGYHACYDSYNPRLPEMLPANCEAYLRFIKGE
in vitro cytotoxicity of SN 23862 with enzyme (V79 cells): lack of activity
amount of antigen detected by its antiserum in Western blot [3]: 500 ng
Quinone reductase [4]: No
activity with menadione / quinone reductase [4, 12]: inactive with menadione or flavins
activity with menadione / quinone reductase [4, 13]: little activity with menadione or flavins
Post-boost titre [5]: 3100
Pre-boost titre (50%) [5]: 1000
Cofactor [6]: NADH
kcat (CB 1954) [7]: 3.2 s⁻¹
kcat for CB1954 (text) [7]: 3.2 s⁻¹
reduction of CB1954: activity and product formed [7]: only the 4HX reduction product
Km [7, 14]: 1200 µM
CB 1954 product ([7]; Table 6, recombinant enzymes): 4HX
Km ([7]; read-out: Km for CB1954): 1200 µM
Flavin reductase [8]: No
flavin reductase activity [8, 12]: inactive with menadione or flavins
flavin reductase activity [8, 13]: little activity with menadione or flavins
Azo-Reductase [9]: Yes
SN 23862 acitvity ([10]; Table 6): Yes
activity with SN23862 [10, 12]: active with SN23862; also recorded: too slow for kinetic parameters to be calculated accurately

B2: H. influenzae NfnB: nitroreductase from H. influenzae, SEQ ID NO: 17 (protein, listed as Haemophilus influenzae)
chain: MTQLTREQVLELFHQRSSTRYYDPTKKISDEDFECILECGRLSPSSVGSEPWKFLVIQNKTLREKMKPFSWGMINQLDNCSHLVVILAKKNARYDSPFFVDVMARKGLNAEQQQAALTKYKALQEEDMKLLENDRTLFDWCSKQTYIALANMLTGASALGIDSCPIEGFHYDKMNECLAEEGLFDPQEYAVSVAATFGYRSRDIAKKSRKGLDEVVKWVG
in vitro cytotoxicity of CB 1954 with enzyme (V79 cells; FIG. 3): most potent
in vitro cytotoxicity of SN 23862 with enzyme (V79 cells): most potent
activity with menadione / quinone reductase [4]: lacks activity with the quinone menadione
Quinone reductase [4]: Yes
Post-boost titre [5]: 760
Pre-boost titre (50%) [5]: 180
Cofactor [6]: NADPH
reduction of CB1954: activity and product formed [7]: form the 4HX reduction product of CB1954
kcat (CB 1954) ([7]; Table 6, 37° C.): 56.2 s⁻¹
Km [7, 14]: 690 µM
CB 1954 product ([7]; Table 6, recombinant enzymes): 4HX
Flavin reductase [8]: Weak
flavin reductase activity ([8]; listed as H. influenzae NfnB homologue): lacks activity with the quinone menadione and flavins FMN or FAD; also recorded: little activity
Azo-Reductase [9]: No
activity with SN23862 [10]: weak activity with SN23862
SN 23862 acitvity, second number of the cell (kcat) ([10]; Table 6, HPLC assay): 39.8
Km ([10]; Table 6, HPLC assay, read-out: SN 23862 acitvity, first number of the cell (Km)): 3360 µM

B3: Bam YwrO: nitroreductase from B. amyloliquefaciens, SEQ ID NO: 2 (protein, listed as Bacillus amyloliquefaciens)
chain: VKVLVLAVHPDMENSAVNKAWAEELKKHDELTVRELYKEYPDGQIDAEKERQLCEQYDRIVFQFPLYWYSAPPLLKTWMDHVLSYGWAYGSKGKALHGKELMLAVSVGAGEDAYQAGGSNHFTLSELLRPFQAMANFTGMTYLPAFALYGVNGADATDIHDNAKRLAAYIKKSF
amount of antigen detected by its antiserum in Western blot [3]: 500 ng
Km ([4]; read-out: Km for menadione): 3.4 µM
Post-boost titre [5]: 2800
Pre-boost titre (50%) [5]: 1200
Km ([6]; read-out: Km for NADPH as cofactor): 40 µM
kcat for CB1954 (text) [7]: 8.2 s⁻¹
reduction of CB1954: activity and product formed [7]: 4HX product only
CB1954 kcat ([7]; Table 1): 2 s⁻¹
CB 1954 product ([7]; Table 1, purified enzymes): 4HX
Km ([7]; read-out: Km for CB1954): 617 µM
flavin reductase activity [8]: has azoreductase and flavin reductase activity
Km ([8]; read-out: Km for FAD): 209 µM
Km ([8]; read-out: Km for FMN): 53 µM
SN23862 Km ([10]; Table 1): inactive
SN23862 kcat ([10]; Table 1): inactive
activity with SN23862 ([10]; listed as YwrO BAM): not SN23862
activity with SN23862 ([10]; listed as YwrO of B. amyloliquefaciens): inactive with this substrate
